# Source: patent publication US20260356940 (published 2026)
# Residue numbers refer to the chain shown, from its start.
# T1: SLAMF6 (human, UniProt Q96DU3)
# T1 chain: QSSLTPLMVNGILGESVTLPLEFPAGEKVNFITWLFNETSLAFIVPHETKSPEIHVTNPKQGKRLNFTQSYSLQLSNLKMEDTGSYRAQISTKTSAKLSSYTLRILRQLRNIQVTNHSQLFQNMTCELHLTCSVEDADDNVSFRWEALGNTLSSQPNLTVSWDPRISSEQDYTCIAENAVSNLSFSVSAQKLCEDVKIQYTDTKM
# B1: LB-116 (antibody, V domains shown)
# VH: EVQLLESGGGLVQPGGSLRLSCAASGFTFSYSYMYWVRQAPGKGLEWVSSISSSGGSTSYADSVKGRFTISRDNSKNTLYLQMNSLRAEDTAVYYCARPNVDSYMDYWGQGTLVTVSS
# VL: DIQMTQSPSSLSASVGDHVTITCRASQSISSYLNWYQQKPGKAPKLLIYAASSLQSGVPSRFSGSGSGTDFTLTISSLQPEDFATYYCQQSYIYLPFTFGQGTKLEIK
# B2: LB-032 (antibody, V domains shown)
# VH: EVQLLESGGGLVQPGGSLRLSCAASGFTFGSYGMSWVRQAPGKGLEWVSYISYSGSYTYYADSVKGRFTISRDNSKNTLYLQMNSLRAEDTAVYYCARGADYYSVLDYWGQGTLVTVSS
# VL: B1 VL with S91F, Y92S, I93T, Y94S, L95P, F97S
# B3: LB-302 (antibody, V domains shown)
# VH: EVQLLESGGGLVQPGGSLRLSCAASGFTFGGYGMSWVRQAPGKGLEWVSYIGYGGSYTYYADSVKGRFTISRDNSKNTLYLQMNSLRAEDTAVYYCARDGAGSYGFFDYWGQGTLVTVSS
# VL: B1 VL with S91F, I93T, Y94N, L95P, P96L, F97L
# B4: LB-20H10 (antibody, V domains shown)
# VH: QVQLQQSGAELVRPGTSVKMSCKAAGYTFTNYWIGWVKQRPGHGLEWIGDIYPGGGYTHHNEKFKGKATLTADTSSSTAYMQLSSLTSEDSAIYYCARSVLPGFAYWGQGTLVTVSA
# VL: DIVMTQSHKFMSTSVGDRVSITCKASQDVNTAVAWCQQKPGQSPKLLIYSASYRFTGVPDRFTGSGSGTDFTFTISSVQAEDLAVYFCQQHYSTPYTFGGGTKLEIK
# B5: LB-031 (antibody, V domains shown)
# VH: EVQLLESGGGLVQPGGSLRLSCAASGFTFGSYYMGWVRQAPGKGLEWVSYISGYSGYTYYADSVKGRFTISRDNSKNTLYLQMNSLRAEDTAVYYCARFSSPAGYPRMDYWGQGTLVTVSS
# VL: DIQMTQSPSSLSASVGDHVTITCRASQSISSYLNWYQQKPGKAPKLLIYAASSLQSGVPSRFSGSGSGTDFTLTISSLQPEDFATYYCQQYYTLPTFGQGTKLEIK
# Target: T1, SLAMF6
# Experiment: SPR
row,Binder,Kd
1,B1,6 nM
2,B2,12 nM
3,B3,16 nM
4,B4,4.1 nM
5,B5,0.38 nM
